Common to all, as to assay: SPOT array
In test [1] the target is T1, Boi1 SH3 (BOI1_YEAST), P38041.
T1 chain: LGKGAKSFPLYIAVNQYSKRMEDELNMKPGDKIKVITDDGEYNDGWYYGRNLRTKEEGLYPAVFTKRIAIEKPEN

The target of test [2] is T2, Boi2 SH3 (BOI2_YEAST), P39969.
T2 chain: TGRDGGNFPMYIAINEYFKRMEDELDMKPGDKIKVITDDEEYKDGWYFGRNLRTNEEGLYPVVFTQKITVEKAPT

Test [3] has as its target T3, Rvs167 SH3 (RV167_YEAST), P39743.
T3 chain: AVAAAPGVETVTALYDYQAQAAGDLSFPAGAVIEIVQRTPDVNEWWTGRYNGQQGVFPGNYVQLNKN

The target of test [4] is T4, Yfr024 SH3 (LSB3_YEAST), P43603.
T4 chain: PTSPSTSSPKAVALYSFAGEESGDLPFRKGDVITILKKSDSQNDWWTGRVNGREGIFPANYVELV

Test [5] concerns the target T5, Yhr016c SH3 (YSC84_YEAST), P32793.
T5 chain: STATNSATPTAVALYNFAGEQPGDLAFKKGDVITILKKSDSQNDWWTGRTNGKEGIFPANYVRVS

We go through 19 molecules from article PMC314469, “Protein Interaction Networks by Proteome Peptide Scanning” (PLoS Biology, 2004).

As for TNYPVNPEKHEMDK [YBR140C 1667-1680], the normalised SPOT signal, Boehringer light units (BLU); mean over the file's lines of this peptide in test [1] was 82.1; in test [2], 32.3; in test [3], 62.1; in test [4] it was 0; in test [5] it was 136.

For TQAPLAPSRNQENE [YPR055W 308-321], the normalised SPOT signal, Boehringer light units (BLU); mean over the file's lines of this peptide worked out at 31.7 in test [1]; 4.1 in test [2]; 38 in test [3]; 1200 in test [4]; 624 in test [5].

With VDAPINPTKILTFI [YBR163W 375-388], the normalised SPOT signal, Boehringer light units (BLU); mean over the file's lines of this peptide in test [1] was found to be 52.9; in test [2], 69.3; in test [3], 67.9; in test [4], 0; in test [5] it was 34.

Regarding TPAPNLPEKTRLAL [YBR208C 872-885], the normalised SPOT signal, Boehringer light units (BLU); mean over the file's lines of this peptide in test [1] stood at 82.2; in test [2] it was 38.3; in test [3], 65.7; in test [4], 6030; in test [5], 221.

Regarding TTVPTKPKKPHDIS [YKR084C 145-158], the normalised SPOT signal, Boehringer light units (BLU); mean over the file's lines of this peptide in test [1] stood at 81.6; in test [2], 22.9; in test [3] it was 18.4; in test [4], 1540; in test [5], 114.

Regarding TSAPDIPPRSPNRN [YDR239C 54-67], the normalised SPOT signal, Boehringer light units (BLU); mean over the file's lines of this peptide in test [1] turned out to be 65600; in test [2], 35900; in test [3] it was 26700; in test [4], 14500; in test [5] it was 14800.

For the molecule VAKPKKPARPTMST [YNL298W 513-526], the normalised SPOT signal, Boehringer light units (BLU); mean over the file's lines of this peptide in test [1] was found to be 71.1; in test [2], 77.1; in test [3], 86.9; in test [4], 9080; in test [5] it was 4950.

TSTPPLPRRRATTS [YGL181W 247-260]: the normalised SPOT signal, Boehringer light units (BLU); mean over the file's lines of this peptide stood at 16400 in test [1]; 1870 in test [2]; 55700 in test [3]; 36200 in test [4]; 122000 in test [5].

TNPPIDPIREANVM [YDL171C 572-585]: the normalised SPOT signal, Boehringer light units (BLU); mean over the file's lines of this peptide in test [1] is 136; in test [2], 55.4; in test [3], 27.6; in test [4] it was 14.7; in test [5], 110.

For the molecule VSPPSFPSRRSETS [YPL006W 878-891], the normalised SPOT signal, Boehringer light units (BLU); mean over the file's lines of this peptide in test [1] stood at 703; in test [2], 117; in test [3] it was 1730; in test [4] it was 40300; in test [5] it was 42100.

For the molecule TSSPPLPPRQNVAT [YPL249C 279-292], the normalised SPOT signal, Boehringer light units (BLU); mean over the file's lines of this peptide in test [1] worked out at 37.2; in test [2], 30.4; in test [3], 16700; in test [4], 25300; in test [5], 47000.

As to VAPPPLPNRQLPNL [YNL094W 505-518], the normalised SPOT signal, Boehringer light units (BLU); mean over the file's lines of this peptide in test [1] stood at 1470; in test [2], 73.2; in test [3], 32500; in test [4], 32400; in test [5], 27300.

Take TPPPVEPLKTKDLA [YBR284W 102-115]: the normalised SPOT signal, Boehringer light units (BLU); mean over the file's lines of this peptide turned out to be 94.4 in test [1]; 43.4 in test [2]; 56.7 in test [3]; 36.2 in test [4]; 146 in test [5].

As to TPLPFAPNKSSKKT [YIR023W 846-859], the normalised SPOT signal, Boehringer light units (BLU); mean over the file's lines of this peptide in test [1] turned out to be 181; in test [2] it was 50.4; in test [3], 28.9; in test [4], 315; in test [5] it was 100.

As to TSKPSLPEKPQKLR [YPR171W 333-346], the normalised SPOT signal, Boehringer light units (BLU); mean over the file's lines of this peptide in test [1] worked out at 252; in test [2] it was 19.2; in test [3], 63.1; in test [4], 11600; in test [5], 319.

In the case of TRRPTNPFRVISVS [YNL166C 314-327], the normalised SPOT signal, Boehringer light units (BLU); mean over the file's lines of this peptide in test [1] worked out at 34.6; in test [2], 49; in test [3], 218; in test [4], 1890; in test [5] it was 566.

Regarding TTRPAPPSKAKDVA [YAL011W 347-360], the normalised SPOT signal, Boehringer light units (BLU); mean over the file's lines of this peptide in test [1] is 61.3; in test [2], 72; in test [3], 125; in test [4], 767; in test [5], 251.

Take TRRPHHPLKQQSTN [YIL152W 34-47]: the normalised SPOT signal, Boehringer light units (BLU); mean over the file's lines of this peptide in test [1] is 87.5; in test [2], 26.4; in test [3] it was 70.4; in test [4], 411; in test [5], 154.

As for TTAPRGPKKAQPAQ [YGR097W 176-189], the normalised SPOT signal, Boehringer light units (BLU); mean over the file's lines of this peptide in test [1] was found to be 138; in test [2], 43.9; in test [3], 89.5; in test [4], 169; in test [5], 264.
